± gives the standard deviation of the averaged measurements.
B1: library; a variant is named by its letters at N, in order (parent)
chain: GCUGUCACCGAGAAACUGUGAAGUAUAUCUUAAACCUGGGCACUUAAAAGAUAUAUGGAGUUAGUAGUGCAACCUGCUCGGUCUGAUGAGUCCNNNNNNGGACGAAACAGC

Legend:
[1] = variants of: B1; test: FACS-Seq fitted mean relative fluorescence mCherry/BFP without ligand (log10 relative fluorescence); HEK293T; ligand: cyclic di-GMP (c-di-GMP-II aptamer); higher = higher reporter protein expression; conditions: ligand present: no
How it was run: (§1)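 Sorting into 6 bins by mCherry/BFP followed 48 h of incubation with or without ligand. The cells were enriched HEK293T libraries lentivirally bearing an mCherry reporter with the ribozyme switch and an EF1α-BFP marker, and bin genomic DNA was PCR-amplified, barcoded and sequenced on MiSeq. Fluorescence is the fitted normal mean of the bin counts. Means were fitted on log10(mCherry/BFP), scaled to five spiked-in control ribozymes.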

[2] = variants of: B1; test: normalized RNA/DNA level without ligand (relative to sTRSVctl = 100) (log10 (% of sTRSVctl)); HEK293T; ligand: cyclic di-GMP (c-di-GMP-II aptamer); higher = less ribozyme self-cleavage, higher mRNA level; conditions: reporter: mCherry (pCS4076), ligand present: no
How it was run: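 HEK293T cells received ligand, where used, 1 h before being transfected with 4 µg per 6-well well of library plasmids encoding reporter-linked ribozyme switches. After 72 h, RNA was extracted with EDTA and sequenced. RNA level was derived from RNA reads per DNA read, normalized to a spiked-in non-cleaving sequence or the top sequences, then scaled and log-transformed. Values were ×100 then log10, the top set was 25 sequences, and the minimum was 100 DNA reads.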

[3] = variants of: B1; test: FACS-Seq fitted mean relative fluorescence mCherry/BFP with ligand (log10 relative fluorescence); HEK293T; ligand: cyclic di-GMP (c-di-GMP-II aptamer); ligand concentration (+) FACS-Seq: 1 mM; higher = higher reporter protein expression; conditions: ligand present: yes
How it was run: as §1

[4] = variants of: B1; test: normalized RNA/DNA level with ligand (relative to sTRSVctl = 100) (log10 (% of sTRSVctl)); HEK293T; ligand: cyclic di-GMP (c-di-GMP-II aptamer); ligand concentration (+) RNA-Seq: 1 mM; higher = less ribozyme self-cleavage, higher mRNA level; conditions: reporter: mCherry (pCS4076), ligand present: yes
Description: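 Hammerhead (sTRSV) ribozyme switch libraries with a ligand aptamer grafted on stem I and a randomized N4-6 loop II, cloned into the 3' UTR of mCherry and transiently transfected into HEK293T cells; RNA-Seq 72 h post transfection with ligand added 1 h before transfection; RNA read count / plasmid DNA read count normalized to the non-cleaving sTRSVctl (x100), log10; sequences with >100 DNA reads. FACS-Seq: lentiviral library sorted into 6 bins after 48 h ligand, log-normal fit mean of mCherry/BFP scaled to controls. Printed sequences are partial switch sequences.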

Row | Variant | FACS-Seq fitted mean (log10) [1] | normalized RNA/DNA level without ligand (log10) [2] | FACS-Seq fitted mean (log10) [3] | normalized RNA/DNA level with ligand (log10) [4]
1 | CCAGAA | -0.598 ± 0.013 | 1.34 ± 0.14 | -0.277 ± 0.015 | 1.58 ± 0.1
2 | CCAGAC | -0.24 ± 0.11 | 1.631 ± 0.0075 | 0.128 ± 0.0098 | 1.83 ± 0.16
3 | UCAGCG | -0.403 ± 0.12 | 1.83 ± 0.077 | -0.141 ± 0.05 | 1.88 ± 0.099
4 | CAUUUA | -0.573 ± 0.012 | 1.32 ± 0.088 | -0.291 ± 0.0053 | 1.51 ± 0.1
5 | UCAAAA | -0.275 ± 0.04 | 1.46 ± 0.037 | -0.0447 ± 0.01 | 1.68 ± 0.15
6 | ACACAG | -0.515 ± 0.016 | 1.44 ± 0.084 | -0.191 ± 0.074 | 1.68 ± 0.11
7 | CCAAAU | -0.277 ± 0.053 | 1.52 ± 0.099 | -0.0208 ± 0.13 | 1.71 ± 0.074
8 | CCAAAC | -0.366 ± 0.047 | 1.6 ± 0.019 | -0.0651 ± 0.082 | 1.75 ± 0.14
9 | CCACCU | -0.368 ± 0.015 | 1.66 ± 0.02 | -0.107 ± 0.015 | 1.8 ± 0.096
10 | GCAAGC | -0.589 ± 0.17 | 1.63 ± 0.026 | -0.514 ± 0.15 | 1.81 ± 0.14
11 | CCAAUG | -0.6462 ± 0.0011 | 1.23 ± 0.16 | -0.334 ± 0.017 | 1.49 ± 0.018
12 | CCAAUA | -0.5437 ± 0.0029 | 1.36 ± 0.12 | -0.271 ± 0.066 | 1.59 ± 0.11
13 | CCAGCA | -0.507 ± 0.13 | 1.73 ± 0.021 | -0.329 ± 0.02 | 1.86 ± 0.098
14 | ACAACU | -0.512 ± 0.13 | 1.57 ± 0.037 | -0.23 ± 0.091 | 1.76 ± 0.13
15 | GCACUC | -0.286 ± 0.015 | 1.5 ± 0.056 | 0.125 ± 0.0091 | 1.69 ± 0.17
16 | GCACUU | -0.492 ± 0.071 | 1.588 ± 0.015 | -0.235 ± 0.081 | 1.8 ± 0.063
17 | GCACUA | -0.172 ± 0.017 | 1.48 ± 0.023 | 0.225 ± 0.12 | 1.75 ± 0.062
18 | UCAGUA | -0.6 ± 0.076 | 1.33 ± 0.2 | -0.299 ± 0.076 | 1.59 ± 0.082

Row | Variant | FACS-Seq fitted mean (log10) [1] | normalized RNA/DNA level without ligand (log10) [2] | FACS-Seq fitted mean (log10) [3] | normalized RNA/DNA level with ligand (log10) [4]
19 | ACACUA | -0.717 ± 0.027 | 1.44 ± 0.038 | -0.414 ± 0.055 | 1.66 ± 0.15
20 | GCAGCU | -0.242 ± 0.076 | 1.65 ± 0.018 | -0.0553 ± 0.039 | 1.78 ± 0.11
21 | AAUUGG | 0.0192 ± 0.091 | 1.59 ± 0.068 | 0.141 ± 0.0084 | 1.74 ± 0.13
22 | CCAAGU | -0.377 ± 0.06 | 1.663 ± 0.013 | 0.0295 ± 0.007 | 1.82 ± 0.099
23 | CCAAGA | -0.572 ± 0.0069 | 1.47 ± 0.074 | -0.208 ± 0.06 | 1.69 ± 0.13
24 | GCAGAA | -0.671 ± 0.025 | 1.27 ± 0.082 | -0.367 ± 0.017 | 1.5 ± 0.13
25 | GCAGAG | -0.424 ± 0.029 | 1.4 ± 0.08 | -0.199 ± 0.03 | 1.58 ± 0.043
26 | UCAGAU | -0.378 ± 0.029 | 1.49 ± 0.067 | -0.0266 ± 0.08 | 1.67 ± 0.078
27 | GCACGA | -0.471 ± 0.043 | 1.43 ± 0.093 | -0.123 ± 0.049 | 1.65 ± 0.11
28 | GCAGUA | -0.229 ± 0.042 | 1.59 ± 0.035 | 0.0693 ± 0.0072 | 1.7 ± 0.12
29 | ACAAAA | -0.498 ± 0.059 | 1.31 ± 0.11 | -0.271 ± 0.018 | 1.52 ± 0.069
30 | ACAAAU | -0.483 ± 0.17 | 1.37 ± 0.13 | -0.291 ± 0.042 | 1.57 ± 0.08
31 | UCAAUU | -0.69 ± 0.034 | 1.585 ± 0.0066 | -0.175 ± 0.22 | 1.77 ± 0.13
32 | UCAAUA | -0.525 ± 0.048 | 1.4 ± 0.085 | -0.157 ± 0.078 | 1.63 ± 0.089
33 | UCAAUG | -0.476 ± 0.064 | 1.51 ± 0.12 | -0.188 ± 0.01 | 1.78 ± 0.027
34 | ACAAGA | -0.604 ± 0.026 | 1.26 ± 0.14 | -0.428 ± 0.022 | 1.46 ± 0.023
35 | ACAAGU | -0.519 ± 0.012 | 1.42 ± 0.039 | -0.19187 ± 0.00017 | 1.63 ± 0.13
36 | ACAAGC | -0.263 ± 0.13 | 1.44 ± 0.045 | -0.052 ± 0.14 | 1.7 ± 0.12
